# Reference: the supplement of paper PMC10567573
# B1: STX11 (parent)
# chain: FQRAMHDYNQAEMKQRDNCKIRIQ
# Variants of: B1
# Experiment: protein stability index of a GFP-peptide fusion (GPS, HEK-293T) (PSI 1-6); higher = more stable
# Conditions: c terminus: a fixed tail appended
# 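Note: lentivirally expressed fusions sorted by FACS into six bins by GFP to DsRed ratio, PSI derived from sequencing read proportions per bin multiplied by bin number.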
row,Variant,protein stability index
1,FQRAMHDYNQAEMKQRDNCKIRDQ [I23D],3.38
2,FQRAMHDYNQAEMKQRDNCKIRHQ [I23H],2.8
3,FQRAMHDYNQAEMKQRDNCKIRMQ [I23M],2.99
4,FQRAMHDYNQAEMKQRDNCKIRTQ [I23T],3.19
5,FQRAMHDYNQAEYKQRDNCKIRIQ [M13Y],2.62
6,FQRAMHDYNQAEKKQRDNCKIRIQ [M13K],1.98
7,FQRAMHDYNQAEEKQRDNCKIRIQ [M13E],2.49
8,FQRAMHDYNQAEGKQRDNCKIRIQ [M13G],3.49
9,FQRAMHDYNQAEWKQRDNCKIRIQ [M13W],2.5
10,FQRAMHDYNQAEFKQRDNCKIRIQ [M13F],2.5
11,FQRAMHDYNQAEDKQRDNCKIRIQ [M13D],3.71
12,FQRAMHDYNQAEVKQRDNCKIRIQ [M13V],2.52
13,FQRAMHDYNQAEQKQRDNCKIRIQ [M13Q],2.62
14,FQRAMHDYNQAECKQRDNCKIRIQ [M13C],2.49
15,FQRAMHDYNQAEIKQRDNCKIRIQ [M13I],2.85
16,FQRNMHDYNQAEMKQRDNCKIRIQ [A4N],2.78
17,FQRWMHDYNQAEMKQRDNCKIRIQ [A4W],1.77
18,FQRYMHDYNQAEMKQRDNCKIRIQ [A4Y],2.59
19,FQRIMHDYNQAEMKQRDNCKIRIQ [A4I],2.18
20,FQREMHDYNQAEMKQRDNCKIRIQ [A4E],3.15
21,FQRMMHDYNQAEMKQRDNCKIRIQ [A4M],2.22
22,FQRKMHDYNQAEMKQRDNCKIRIQ [A4K],2.54
23,FQRHMHDYNQAEMKQRDNCKIRIQ [A4H],2.75
24,FQRPMHDYNQAEMKQRDNCKIRIQ [A4P],3.3

row,Variant,protein stability index
1,FQRAMHDYNQAEMKQRDNEKIRIQ [C19E],3.06
2,FQRAMHDYNQAEMKQRDNGKIRIQ [C19G],3.06
3,FQRAMHDYNQAEMKQRDNPKIRIQ [C19P],3.71
4,FQRAMHDYNQAEMKQRDNDKIRIQ [C19D],2.85
5,FQRAMHDYNQAEMKQRDNHKIRIQ [C19H],4.44
6,FQRAMHDYSQAEMKQRDNCKIRIQ [N9S],2.91
7,FQRAMHDYAQAEMKQRDNCKIRIQ [N9A],2.47
8,FQRAMHDYCQAEMKQRDNCKIRIQ [N9C],2.15
9,FQRAMHDYEQAEMKQRDNCKIRIQ [N9E],2.94
10,FQRAMHDYGQAEMKQRDNCKIRIQ [N9G],2.33
11,FQRAMHDYFQAEMKQRDNCKIRIQ [N9F],1.83
12,FQRAMHDYYQAEMKQRDNCKIRIQ [N9Y],1.74
13,FQRAMHDYMQAEMKQRDNCKIRIQ [N9M],1.7
14,FQRAMHDYLQAEMKQRDNCKIRIQ [N9L],2.74
15,FQRAMHDYNQAEMKQRDNCKLRIQ [I21L],2.29
16,FQRAMHDYNQAEMKQRDNCKVRIQ [I21V],1.92
17,FQRAMHDYNQAEMKQRDNCKTRIQ [I21T],3.17
18,FQRAMHDYNQAEMKQRDNCKERIQ [I21E],2.92
19,FQRAMHDYNQAEMKQRDNCKHRIQ [I21H],2.76
20,FQRAMHDYNQAEMKQRDNCKWRIQ [I21W],3.17
21,FQRAMHDYNQAEMKQRDNCKPRIQ [I21P],2.9
22,FQRAMHDYNQAEMKQRDNCKMRIQ [I21M],3.12
23,FQRAMHDYNQLEMKQRDNCKIRIQ [A11L],3.27
24,FQRAMHDYNQFEMKQRDNCKIRIQ [A11F],2.46

row,Variant,protein stability index
1,FQRAMHDYNQQEMKQRDNCKIRIQ [A11Q],2.42
2,FQRAMHDYNQYEMKQRDNCKIRIQ [A11Y],3.24
3,FQRAMHDYNQMEMKQRDNCKIRIQ [A11M],2.02
4,FQRAIHDYNQAEMKQRDNCKIRIQ [M5I],2.16
5,FQRACHDYNQAEMKQRDNCKIRIQ [M5C],2.73
6,FQRATHDYNQAEMKQRDNCKIRIQ [M5T],3.15
7,FQRAVHDYNQAEMKQRDNCKIRIQ [M5V],2.63
8,FQRAAHDYNQAEMKQRDNCKIRIQ [M5A],3.93
9,FQRAMHDYNQAEMKQRDNCKIRIV [Q24V],2.42
10,FQRAMHDYNQAEMKQRDNCKIRIT [Q24T],2.77
11,FQRAMHDYNQAEMKQRDNCKIRIS [Q24S],2.27
12,FQRAMHDYNQAEMKQRDNCKIRIH [Q24H],2.74
13,FQRAMHDYNQAEMKQRDNCKIRIE [Q24E],3.17
14,FQRAMHDYNQAEMKQRDNCKIRIR [Q24R],2.33
15,FQRAMHDYNQAEMKQRDNCKIRIA [Q24A],2.62
16,FQRAMHDYNQAEMKQRDNCKIRII [Q24I],2.36
17,FQRAMHDYNQAEMKQRDNCKIRIL [Q24L],3.09
18,FQRAMHDYNQAEMKQKDNCKIRIQ [R16K],2.81
19,FQRAMHDYNQAEMKQDDNCKIRIQ [R16D],3.28
20,FQRAMHDYNQAEMKQVDNCKIRIQ [R16V],2.63
21,FQRAMHDYNQAEMKQLDNCKIRIQ [R16L],3.07
22,FQRAMHDYNQAEMKQEDNCKIRIQ [R16E],3.04
23,FQRAMHDYNQAEMKQHDNCKIRIQ [R16H],2.73
24,FQRAMHDYNQAEMKQGDNCKIRIQ [R16G],3.37

row,Variant,protein stability index
1,FQRAMHDYNQAEMKQMDNCKIRIQ [R16M],2.46
2,FQRAMHDYNQAEMKQPDNCKIRIQ [R16P],2.87
3,FQRAMHDYNQAEMDQRDNCKIRIQ [K14D],3.08
4,FQRAMHDYNQAEMMQRDNCKIRIQ [K14M],2.82
5,FQRAMHDYNQAEMIQRDNCKIRIQ [K14I],2.3
6,FQRAMHDYNQAEMHQRDNCKIRIQ [K14H],2.57
7,FQRAMHDYNQAEMNQRDNCKIRIQ [K14N],2.94
8,FQRAMHDYNQAEMRQRDNCKIRIQ [K14R],2.18
9,FQRAMHDYNYAEMKQRDNCKIRIQ [Q10Y],2.17
10,FQRAMHDYNHAEMKQRDNCKIRIQ [Q10H],2.16
11,FQRAMHDYNWAEMKQRDNCKIRIQ [Q10W],1.73
12,FQRAMHDYNNAEMKQRDNCKIRIQ [Q10N],2.63
13,FQRAMHDYNCAEMKQRDNCKIRIQ [Q10C],1.87
14,FQRAMHDYNMAEMKQRDNCKIRIQ [Q10M],1.92
15,FQRAMHDYNAAEMKQRDNCKIRIQ [Q10A],3.1
16,FQRAMHDYNQAEMKQRDNCKIIIQ [R22I],2.58
17,FQRAMHDYNQAEMKQRDNCKIPIQ [R22P],3.02
18,FQRAMHDYNQAEMKQRDNCKIVIQ [R22V],2.6
19,FQRAMHDYNQAEMKQRDNCKIQIQ [R22Q],2.9
20,FQRAMHDYNQAEMKQRDNCKITIQ [R22T],2.54
21,FQRAMHDYNQAEMKQRDNCKILIQ [R22L],2.53
22,FQRAMHDYNQAEMKQRDNCKIFIQ [R22F],2.04
